The supplement of paper PMC9170038

Tested on: MS2 coat protein
Experiment: apparent KD of MS2 coat protein; higher = weaker reporter binding
Conditions: Eterna round: R107
Outline: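 Designed RNA switches were transcribed on-chip from Illumina sequencing clusters. SNAP-549-labelled MS2 coat protein was titrated onto them in twofold steps from 0.7 or 1.5 nM to 3 µM in 100 mM Tris-HCl pH 7.5, 80 mM KCl, 4 mM MgCl2, either without or with constant ligand. Apparent KD reflects the per-design median of normalised cluster binding-curve fits.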

[1] = input ligand: theophylline 20 uM
[2] = input ligand: theophylline 2 mM
[3] = input ligand: tryptophan 2.4 mM

Sequence | apparent KD of MS2 coat protein (input ligand: arginine 13.2 mM) | apparent KD of MS2 coat protein [1] | apparent KD of MS2 coat protein [2] | apparent KD of MS2 coat protein [3] | apparent KD of MS2 coat protein (input ligand: none)
GAACAGUCGGACAUGAGGAUCACCCAUGUGCGAGGACCGGUACGGCCGCCACUCGACAAGGGCGGUCCCGAAGCGAACAUACGCG [Cecearla] | 14.9 nM | 43.4 nM | 34.4 nM | – | –
AUAUGAUCAUGGGAUACCAGAAAUGGUAUUCCUUUAUUUCUUACAUGAGGAUCACCCAUGUUCCCUUGGCAGCUUAUGAUCAUAU [ETHB #5] | 53.7 nM | 85.8 nM | – | 67.9 nM | –
GGAUAGGACACGGCCGCCACUAGCUAGGAUACUAGCAACAUUUCCUCACUUGAGGAACACCCAAGUAGGACCGGGUGUCCUAUCG | 122 nM | 724 nM | 1360 nM | 740 nM | 517 nM
CAAUAGAUAGCGGCCGCCACUUACUCAUGAGGUAACAACAUGAGGAUCACCCAUGUUUGAGGAUCAAGGACCGGGCUAUUUAUUG [AstrosSSTryB#7] | 29.1 nM | 39.1 nM | 31.9 nM | 19.1 nM | 27.5 nM
ACGAUACGACAUGAGGAUCACCCAUGUGAUACCAGCGUGGAAACACGCCCUUGGCAGCACAAAUACUCCAAUAACGUAUCGAAAA [MAT - Exclusion Theophlline A - Mod of Eli - D8] | 139 nM | 211 nM | – | 260 nM | –
UAUACUAUGAAAGUAGUAUAUACGUGUUGACGAGGACCGGUACGGCCGCCACUCGACAUGAGGAUCACCCAUGUAUAGAAUAAGU [TrypA_F1] | 18.6 nM | 24.4 nM | 30 nM | 15.3 nM | 23.7 nM
AACAUGAGGAUCACCCAUGUGUCCUCGAAACGAGGACCGGUACGGCCGCCACUCGGCGUAUGUUGACGAAAAGUCAGCAUACGCA [Mat - Exclusion - Trytophan A - D11] | 81.8 nM | 209 nM | 255 nM | – | –
AAGCUGGGUGUAAAAUAAAUAAUCACUGAUACCAGACUAUGAGAUGUCCCUUGGCAGCAGAAACAUGAGGAUCACCCAUGUAAUA [JR_Nu_ExcTheophyA_Sub027] | 21.4 nM | 25.5 nM | – | 27.1 nM | –
CUAGGAAACUAGUAAGGGUGGUAUAGAGAUACCAGUACAGAAAUGUACCCUUGGCAGCUCACUGCAACAUGAGGAUCACCCAUGU [Ex Theophylline A 11] | 29.9 nM | 41.6 nM | – | 26.1 nM | –
UGUAUGGACUGAAGGAGCGGAUGAUAAUCUGAGGAUCACCCAGGUAAUAAGGCGAAAGCCAUCCAGGUAGGUCGCAGUCCAUACU | 40.9 nM | 96.9 nM | 111 nM | 103 nM | 82.9 nM
UAUCGUCAGACGGCCGCCACUAGAACAUGAGGAUCACCCAUGUAGUGGCCGGAUACCUCAAUAACUAGGACCGGGUCUGACGAAU [(Trp1)-(Ms2)-(T)'-(M)'-(Trp2)_Design17] | 36.6 nM | 96.5 nM | 54 nM | 32.7 nM | 52.2 nM
GGCGCGGUGAUGGUAGCCGGACGCUAGGUACGAGGACCGGUACGGCCGCCACUCGGAGUCCUGGGACAUGAGGAUCACCCAUGUA [Same State Trp A GF18] | 78.9 nM | 118 nM | 209 nM | 63.4 nM | 161 nM
ACAUGAGGAUCACCCAUGUGAAGGCACGAUACCAGCUGAUCCCGUGGCCCUUGGCAGCGUCCGGUGUGGUCCGGCGGAUGGGACG [xwxmullin] | 19.1 nM | 23.3 nM | 30.9 nM | 26.4 nM | 25 nM
UGUCAGCGAAAGUUGACAUGUUGAACCGGUCGAGGACCGGUACGGCCGCCACUCGAUCUCUCGUACAUGAGGAUCACCCAUGUCG [SS Tryp A #18] | 11.9 nM | 14 nM | 11.7 nM | – | –
UUAUGCAGGUCGGCCGCCACUACACACAUGAGGAUCACCCAUGUAGUUACUGGGUGAAGUGGCAGUAGGACCGGGACCUGCAUAC [Brourdmod06] | 55.4 nM | 396 nM | 877 nM | – | –
UCGUUAUGGUCGGCCGCCACUCGCGGAGAGCAUAGCUCAAACAUGAGGAUCACCCAUGUAUCAUGGAGGACCGGGACCAUAACGU [Rxmullin variation #StaticStem] | 30 nM | 46.1 nM | 42.7 nM | – | –
AAUCAUGAAAACAUGACAUGAGGAUCACUCCGAGGACCGGUACGGCCGCCACUCGCGAGGAGGCGGACAUGAGGAUCACCCAUGU [#02 Tryptophan A Same State] | 49.2 nM | 265 nM | 421 nM | – | –

Sequence | apparent KD of MS2 coat protein (input ligand: arginine 13.2 mM) | apparent KD of MS2 coat protein [1] | apparent KD of MS2 coat protein [2] | apparent KD of MS2 coat protein [3] | apparent KD of MS2 coat protein (input ligand: none)
AAAUAAAUAACUGAUACCAGUGGACUGACAUGAGGAUCACCCAUGUUGGGUUUUGUUGUCCACCCUUGGCAGCGGGCAUAUAAAA [#25 Exclusion-TheophyllineB] | 23.4 nM | 38.4 nM | – | 26.8 nM | –
GAUACUAUGAAAGUAGUAUCUACGUGUUGACGAGGACCGGUACGGCCGCCACUCGACAUGAGGAUCACCCAUGUAUAGAAUAUGU [TrypA_2] | 25.1 nM | 39.2 nM | 31.9 nM | – | –
AAAGCCUUGCCCGGUGUUCCGAAAGUGGAAGGAGCGCACAUUGGUGCAGGUAGGUCGCCACAUGAGGAUCACCCAUGUCUAGGCU [Isbeat] | 42.5 nM | 107 nM | 135 nM | 11.3 nM | 34.1 nM
AAGGUGAUCCCAGAUACCAGCUUAACAUGAGGAUCACCCAUGUAUGGGACGAAAGUCCCGGGCCCUUGGCAGCUGGGUUGCCAAG [SSTheo B #16] | 43.6 nM | 427 nM | 64.9 nM | 170 nM | 224 nM
ACAUGAGGAUCACCCAUGUUAAACACAGAAGGAGCGUGAAGGAACACAGGUAGGUCGCUGUACUUAUUGAGUAUUCACUCGAUAC [JR_Nu_SSArginiA_Sub028] | 14.9 nM | 16.5 nM | 12.8 nM | 13.3 nM | 12.5 nM
AAUUUGUCGGGUGAUACCAGCCUCGGCGCGUCUCGCGCUGAACAUGAGGAUCACCCAUGUGGCCCUUGGCAGCACAUGACAAAUC [Raracere] | 367 nM | 557 nM | – | 677 nM | –
GAAGGAGUUAUGGGUACUCCUUCACUGGAAGGAGCGAGCGAAAGCUCAGGUAGGUCGCCAGAAACAUGAGGAUCACCCAUGUAAU [(A)''-(M)'-(A)'-(Arg1)-(Arg2)-(M1)-(M2)_Design6] | 30.3 nM | 59.5 nM | 65.3 nM | 41.3 nM | 45.7 nM
UUAGAUAUGACAGAUACCAGCGUGUUGUAGAACAUGAGGAUCACCCAUGUAGUGAUCGUGCGCCCUUGGCAGCUGGUAUGUUUGG [7.W] | 148 nM | 341 nM | – | 788 nM | –
ACAUGACAACAUGAGGAUCACCCAUGUCAUCGAGGACCGGUACGGCCGCCACUCGGUCAAUAUGAUACUUGUCAUGAACAUGAGG [Exclusion Tryptophan A 2] | 19 nM | 25.7 nM | 21.3 nM | – | –
GGUAUGUAUUCGGAAACGAAUGCAUACCAACGAGGACCGGUACGGCCGCCACUCGGGCGGCGAUCACAUGAGGAUCACCCAUGUA [Ex Tryptophan A 2] | 28 nM | 45.3 nM | 56.6 nM | – | –
UACAUGAGGAUCACCCAUGUAUGAAUAGAUACCAGAUAAAAUAAGGUCCCUUGGCAGCUAGUGAAUAAAGGGUGGGUAAAAUAAU [Exclusion Theophyline A GF 1] | 11.3 nM | 12.3 nM | – | 9.24 nM | –
AAUAUAUAGACGGCCGCCACUGGAACCAAUACAUGAGGAUCACCCAUGUGAAAAGGAUAGGUUCACAGGACCGGGUCUUCAUGUA [SS Tryp B Tesla 1.3] | 40.5 nM | 33.1 nM | 61 nM | – | –
AAGUCAGGAGGCGAUACCAGUUACGACAUGGCCAGUUACAUGAGGAUCACCCAUGUGCGGAACCCUUGGCAGCGCUUACAUCGCU [theeternabot_exclusion_MS2_Theo_B_1] | 22.5 nM | 47 nM | – | 24.4 nM | –
AUGAAGCUAAGAGAUACCAGUGACCACAGAUACAUGAGGAUCACCCAUGUCUCAAAUUGUCACCCUUGGCAGCUCACUAUCGAAG [theeternabot_sameState_MS2_Theo_B_29] | 11.2 nM | 11.9 nM | – | 10.2 nM | –
CAUUUUAGAAAACUAAAAUGAGUGGGUGAACGAGGACCGGUACGGCCGCCACUCGGACAUGAGGAUCACCCAUGUCCAUGUGAAA [AstrosExyTryA#22] | 22.8 nM | 15 nM | 14.4 nM | 37.8 nM | 14.1 nM
UUUGAUAGGACAGAUACCAGCGUGUUGUUGAACAUGAGGAUCACCCAUGUAGUGAUCGAGCGCCCUUGGCAGCUGGUUUGUUAGG [7.O] | 102 nM | 434 nM | – | 307 nM | –
UUCUACAUGAGGAUCACCCAUGUGGGUGAUACCAGCACUUUUUGGUGCCCUUGGCAGCACAUGAGAAUACCGUACGAUCGGUGAU [Isbiti] | 103 nM | 559 nM | – | 508 nM | –
